Results reported in publication PMC4460818.

Target: His-NDR1^3E (human) (UniProt Q15208)
Sequence (Q15208 other isoform, or with tags, fused parts or gaps): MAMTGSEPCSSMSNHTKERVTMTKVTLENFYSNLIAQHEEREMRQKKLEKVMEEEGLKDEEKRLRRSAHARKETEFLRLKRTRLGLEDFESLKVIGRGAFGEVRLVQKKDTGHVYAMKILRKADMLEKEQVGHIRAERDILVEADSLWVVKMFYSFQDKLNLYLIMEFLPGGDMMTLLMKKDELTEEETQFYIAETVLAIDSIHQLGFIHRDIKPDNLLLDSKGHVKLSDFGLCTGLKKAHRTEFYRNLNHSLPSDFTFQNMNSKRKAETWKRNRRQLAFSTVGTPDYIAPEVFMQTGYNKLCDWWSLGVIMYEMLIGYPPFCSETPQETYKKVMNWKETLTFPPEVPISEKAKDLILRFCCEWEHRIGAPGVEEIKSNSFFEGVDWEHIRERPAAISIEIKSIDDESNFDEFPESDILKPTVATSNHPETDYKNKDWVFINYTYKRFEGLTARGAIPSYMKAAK

Binder: KKRNRRLSVA [10-mer NDR1 substrate peptide]
- Km toward the 10-mer substrate peptide SP in a fluorimetric kinase assay, relative to wild type NDR1: 1.7 fold
